This note sets out measurements from article PMC12493188.

Test [1] has as its target reaction centre-light harvesting 1 (RC-LH1) core complex, monomer, from Rba. sphaeroides strain DX13 (Rhodobacter sphaeroides 2.4.1) (UniProt P0C0Y8).
Test [2] has the same target. The source holds these as a separate data set.

On to “plastocyanin (Pc) of Synechocystis sp. PCC 6803, C-terminally StrepII-tagged (from UniProt P21697 29-126) (natural protein)”, for which, in test [1], the K M of redox carrier oxidation by RC-LH1, steady-state turnover (0.125 µM RC-LH1, 50 µM UQ-2, 50 mM Tris-HCl pH 7.5, 100 mM NaCl, 0.03% β-DDM, 25°C) is 209 µM; the Pc oxidation rate by RC-LH1 against NaCl (0-800 mM): optimum [NaCl] came out at 700 mM; the V max of redox carrier oxidation by RC-LH1, steady-state turnover (0.125 µM RC-LH1, 50 µM UQ-2, 50 mM Tris-HCl pH 7.5, 100 mM NaCl, 0.03% β-DDM, 25°C) was 7.92 e^−/RC/s.

In test [1], “cytochrome c 2 (cyt c 2) of Rba. sphaeroides (from UniProt P0C0X8 1-124) (natural protein)” gave a K M of redox carrier oxidation by RC-LH1, steady-state turnover (0.125 µM RC-LH1, 50 µM UQ-2, 50 mM Tris-HCl pH 7.5, 100 mM NaCl, 0.03% β-DDM, 25°C) of 6.8 µM and a V max of redox carrier oxidation by RC-LH1, steady-state turnover (0.125 µM RC-LH1, 50 µM UQ-2, 50 mM Tris-HCl pH 7.5, 100 mM NaCl, 0.03% β-DDM, 25°C) of 293 e^−/RC/s. The substance further displayed a cyt c 2 oxidation rate by RC-LH1 against NaCl (series up to 500 mM; optimum 100 mM in Table 1): activity left at 500 mM NaCl, percent of the maximum (% of maximum activity) in test [2] of 40.

For the substance “isocytochrome c 2 (iso c 2) of Rba. sphaeroides (natural protein)”, in test [1], the K M of redox carrier oxidation by RC-LH1, steady-state turnover (0.125 µM RC-LH1, 50 µM UQ-2, 50 mM Tris-HCl pH 7.5, 100 mM NaCl, 0.03% β-DDM, 25°C) was determined as 5.88 µM and the V max of redox carrier oxidation by RC-LH1, steady-state turnover (0.125 µM RC-LH1, 50 µM UQ-2, 50 mM Tris-HCl pH 7.5, 100 mM NaCl, 0.03% β-DDM, 25°C) was 230 e^−/RC/s. Moreover, the iso c 2 oxidation rate by RC-LH1 against NaCl (series up to 500 mM; optimum 50 mM in Table 1): activity left at 500 mM NaCl, percent of the maximum (% of maximum activity) in test [2] came out at 20.

In test [1], “cytochrome c 6 (cyt c 6) of Synechocystis sp. PCC 6803 (from UniProt P46445 36-120) (natural protein)” came in with a K M of redox carrier oxidation by RC-LH1, steady-state turnover (0.125 µM RC-LH1, 50 µM UQ-2, 50 mM Tris-HCl pH 7.5, 100 mM NaCl, 0.03% β-DDM, 25°C) of 66.3 µM; a V max of redox carrier oxidation by RC-LH1, steady-state turnover (0.125 µM RC-LH1, 50 µM UQ-2, 50 mM Tris-HCl pH 7.5, 100 mM NaCl, 0.03% β-DDM, 25°C) of 37.8 e^−/RC/s; a cyt c 6 oxidation rate by RC-LH1 against NaCl (0-800 mM): optimum [NaCl] of 700 mM.

In turn, “cytochrome c (cyt c) from horse heart mitochondria (from UniProt P00004 1-105) (natural protein)” registered a cyt c oxidation rate by RC-LH1 against NaCl (series up to 500 mM; observed optimum 50 mM): activity lost at 500 mM NaCl (% of activity lost) in test [2] of 90.
